Test results as given in paper PMC3342256.

What was measured:
[1] = target: Plasmodium falciparum P2 (PfP2), recombinant histidine-tagged full length protein (Plasmodium falciparum) (UniProt O00806); assay: multi-angle light scattering; PfP2 250 to 400 µM, freshly prepared sample, HELEOS 8 Wyatt instrument, BSA as standard
[2] = target: Plasmodium falciparum P2 (PfP2), recombinant histidine-tagged full length protein (Plasmodium falciparum) (UniProt O00806); assay: dynamic light scattering; PfP2 40 to 180 µM in Tris buffer, pH 7.5, 25°C, freshly prepared samples; size from a calibration of hydrodynamic diameter against molecular weight

stoichiometry N [1]: 7 to 8
stoichiometry N [2]: 8 to 9
Substance: Plasmodium falciparum P2 (PfP2), recombinant histidine-tagged full length protein (from UniProt O00806 1-112) (natural protein)
